Measurements published in PMC5962572, “Crystal structure of dihydrodipicolinate reductase (PaDHDPR) from Paenisporosarcina sp. TG-14: structural basis for NADPH preference as a cofactor” (Scientific Reports, 2018).
Each block holds one molecule with its values, some of them ahead of it.

What was measured:
PaDHDPR [1] = molecular target: T1, PaDHDPR (Paenisporosarcina sp. TG-14, UniProt A0A3B6UER2); assay: X-ray crystallography, co-crystals, […] Å (binary) and […] Å (with NADPH); format: binding; conditions: 10 mM DPA; substrate site of the C-terminal domain; competitive inhibitor
T1 construct: gene dapB; full length, residues 1-264; pET-28a N-terminal His tag removed by thrombin; expressed in E. coli BL21(DE3); homotetramer
T1 sequence (A0A3B6UER2 2-265): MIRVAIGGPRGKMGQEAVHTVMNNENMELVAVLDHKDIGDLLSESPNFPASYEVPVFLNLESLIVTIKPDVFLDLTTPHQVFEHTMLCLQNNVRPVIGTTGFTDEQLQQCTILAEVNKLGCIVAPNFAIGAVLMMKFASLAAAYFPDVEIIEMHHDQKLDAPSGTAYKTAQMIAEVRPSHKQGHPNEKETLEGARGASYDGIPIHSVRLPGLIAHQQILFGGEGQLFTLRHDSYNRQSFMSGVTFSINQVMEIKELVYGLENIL

PaDHDPR [2] = molecular target: T1, PaDHDPR; assay: isothermal titration calorimetry; format: binding; conditions: 50 mM Tris-HCl, 150 mM NaCl, pH 8.0, 25 °C; 80 μM protein, 1 mM ligand
PaDHDPR [3] = molecular target: T1, PaDHDPR; assay: isothermal titration calorimetry, one-site model; format: binding
PaDHDPR [4] = molecular target: T2, PaDHDPR (Paenisporosarcina sp. TG-14, UniProt A0A3B6UER2, H36A); assay: isothermal titration calorimetry, one-site model; format: binding; conditions: 50 mM Tris-HCl, 150 mM NaCl, pH 8.0, 25 °C
T2 construct: gene dapB; full length, residues 1-264; pET-28a N-terminal His tag removed by thrombin; expressed in E. coli BL21(DE3); homotetramer

PaDHDPR [5] = molecular target: T3, PaDHDPR (Paenisporosarcina sp. TG-14, UniProt A0A3B6UER2, K37A); assay: isothermal titration calorimetry, one-site model; format: binding
T3 construct: gene dapB; full length, residues 1-264; pET-28a N-terminal His tag removed by thrombin; expressed in E. coli BL21(DE3); homotetramer

[6] = molecular target: Dihydrodipicolinate reductase from Paenisporosarcina sp. TG-14 (Paenisporosarcina sp. TG-14); assay: AUC; analytical centrifugation of purified PaDHDPR; conditions not told in the main text
purified protein [7] = substrate: O=C(O)C1=N[C@H](C(=O)O)CC=C1; assay: purified protein; format: biochemical, Paenisporosarcina sp. TG-14; conditions: ASA (L-aspartate-semialdehyde) concentration varied and printed as the substrate, ASA fully converted to DHDP by PaDHDPS with 1 mM pyruvate, NADPH, 100 mM HEPES pH 7.5, 25 °C
purified protein [8] = substrate: NC(=O)C1=CN([C@@H]2O[C@H](COP(=O)(O)OP(=O)(O)OC[C@H]3O[C@@H](n4cnc5c(N)ncnc54)[C@H](O)[C@@H]3O)[C@@H](O)[C@H]2O)C=CC1; assay: purified protein; format: biochemical, Paenisporosarcina sp. TG-14; conditions: NADH varied, DHDP generated from ASA and pyruvate, 100 mM HEPES pH 7.5, 25 °C, varied: cofactor
purified protein [9] = substrate: NC(=O)C1=CN([C@@H]2O[C@H](COP(=O)(O)OP(=O)(O)OC[C@H]3O[C@@H](n4cnc5c(N)ncnc54)[C@H](OP(=O)(O)O)[C@@H]3O)[C@@H](O)[C@H]2O)C=CC1; assay: purified protein; format: biochemical, Paenisporosarcina sp. TG-14; conditions: NADPH varied, DHDP generated from ASA and pyruvate, 100 mM HEPES pH 7.5, 25 °C, varied: cofactor

T3 sequence (A0A3B6UER2 entry or part of it K37A): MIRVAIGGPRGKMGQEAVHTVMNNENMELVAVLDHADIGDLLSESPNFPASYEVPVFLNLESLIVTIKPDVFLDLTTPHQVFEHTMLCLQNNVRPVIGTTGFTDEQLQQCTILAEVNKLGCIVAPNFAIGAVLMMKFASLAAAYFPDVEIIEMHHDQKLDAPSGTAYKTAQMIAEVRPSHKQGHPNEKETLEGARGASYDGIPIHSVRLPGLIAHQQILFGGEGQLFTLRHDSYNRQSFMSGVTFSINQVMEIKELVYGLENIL
T2 sequence (A0A3B6UER2 entry or part of it H36A): as the sequence (A0A3B6UER2 entry or part of it K37A) above, with H35A, A36K counted along it

- no binding detected (PaDHDPR [2]): NADH did not bind to PaDHDPR
Molecule: NC(=O)C1=CN([C@@H]2O[C@H](COP(=O)(O)OP(=O)(O)OC[C@H]3O[C@@H](n4cnc5c(N)ncnc54)[C@H](O)[C@@H]3O)[C@@H](O)[C@H]2O)C=CC1 [NADH]

- Kd (PaDHDPR [3]): 37 µM
- Kd (PaDHDPR [5]): 236 µM
Molecule: NC(=O)C1=CN([C@@H]2O[C@H](COP(=O)(O)OP(=O)(O)OC[C@H]3O[C@@H](n4cnc5c(N)ncnc54)[C@H](OP(=O)(O)O)[C@@H]3O)[C@@H](O)[C@H]2O)C=CC1 [NADPH]
- no binding detected (PaDHDPR [4]): H35A mutation induced complete loss of binding affinity

- stoichiometry N [6]: 4
Molecule: Dihydrodipicolinate reductase from Paenisporosarcina sp. TG-14 (enzyme)

More lines, now with the values behind:

Molecule: O=C(O)c1cccc(C(=O)O)n1 [DPA]
- X-ray crystallography, co-crystals, 1.8 Å (binary) and 2.1 Å (with NADPH) (PaDHDPR [1]): Electron density corresponding to DPA was observed in the substrate-binding site of the C-terminal domain

B1: PaDHDPR (Paenisporosarcina sp. TG-14) (protein)
chain: T1 sequence (A0A3B6UER2 2-265)
notes: full length, residues 1-264; pET-28a N-terminal His tag removed by thrombin; expressed in E. coli BL21(DE3); homotetramer
- Km (purified protein [7]): 12 ± 1.6 µM
- kcat (purified protein [7]): 52 ± 1.1 s⁻¹
- Km (purified protein [8]): 43 ± 8.9 µM
- kcat (purified protein [8]): 7.1 ± 0.1 s⁻¹
- Km (purified protein [9]): 22 ± 1.4 µM
- kcat (purified protein [9]): 55 ± 1.2 s⁻¹
